Percent of parent data for 33 variants are collected here from paper PMC6695210, “Bipartite interface of the measles virus phosphoprotein X domain with the large polymerase protein regulates viral polymerase dynamics” (PLoS Pathogens, 2019).

The labels stand for the following.
B1: MeV phosphoprotein (P), wild type [measles virus (strain IC-B)] / MeV L_(1708), C-terminally truncated large polymerase protein lacking the methyltransferase domain [measles virus (strain IC-B)] (parent complex)
chain 1: MAEEQARHVKNGLECIRALKAEPIGSLAVEEAMAAWSEISDNPGQDRATCKEEEAGSSGLSKPCLSAIGSTEGGAPRIRGQGSGESDDDAETLGIPSRNLQASSTGLQCYHVYDHSGEAVKGIQDADSIMVQSGLDGDSTLSGGDDESENSDVDIGEPDTEGYAITDRGSAPISMGFRASDVETAEGGEIHELLKLQSRGNNFPKLGKTLNVPPPPNPSRASTSETPIKKGTDARLASFGTEIASLLTGGATQCARKSPSEPSGPGAPAGNVPECVSNAALIQEWTPESGTTISPRSQNNEEGGDYYDDELFSDVQDIKTALAKIHEDNQKIISKLESLLLLKGEVESIKKQINRQNISISTLEGHLSSIMIAIPGLGKDPNDPTADVELNPDLKPIIGRDSGRALAEVLKKPVASRQLQGMTNGRTSSRGQLLKEFQLKPIGKKVSSAVGFVPDTGPASRSVIRSIIKSSRLEEDRKRYLMTLLDDIKGANDLAKFHQMLMKIIMK
chain 2: MDSLSVNQILYPEVHLDSPIVTNKIVAILEYARVPHAYSLEDPTLCQNIKHRLKNGFSNQMIINNVEVGNVIKSKLRSYPAHSHIPYPNCNQDLFNIEDKESTRKIRELLKKGNSLYSKVSDKVFQCLRDTNSRLGLGSELREDIKEKIINLGVYMHSSQWFEPFLFWFTVKTEMRSVIKSQTHTCHRRRHTPVFFTGSSVELLISRDLVAIISKESQHVYYLTFELVLMYCDVIEGRLMTETAMTIDARYAELLGRVRYMWKLIDGFFPALGNPTYQIVAMLEPLSLAYLQLRDITVELRGAFLNHCFTEIHDVLDQNGFSDEGTYHELIEALDYIFITDDIHLTGEIFSFFRSFGHPRLEAVTAAENVRKYMNQPKVIVYETLMKGHAIFCGIIINGYRDRHGGSWPPLTLPLHAADTIRNAQASGEGLTHEQCVDNWKSFAGVRFGCFMPLSLDSDLTMYLKDKALAALQREWDSVYPKEFLRYDPPKGTGSRRLVDVFLNDSSFDPYDMIMYVVSGAYLHDPEFNLSYSLKEKEIKETGRLFAKMTYKMRACQVIAENLISNGIGKYFKDNGMAKDEHDLTKALHTLAVSGVPKDLKESHRGGPVLKTYSRSPVHTSTRNVKAEKGFVGFPHVIRQNQDTDHPENIETYETVSAFITTDLKKYCLNWRYETISLFAQRLNEIYGLPSFFQWLHKRLETSVLYVSDPHCPPDLDAHVPLCKVPNDQIFIKYPMGGIEGYCQKLWTISTIPYLYLAAYESGVRIASLVQGDNQTIAVTKRVPSTWPYNLKKREAARVTRDYFVILRQRLHDIGHHLKANETIVSSHFFVYSKGIYYDGLLVSQSLKSIARCVFWSETIVDETRAACSNIATTMAKSIERGYDRYLAYSLNVLKVIQQILISLGFTINSTMTRDVVIPLLTNNDLLIRMALLPAPIGGMNYLNMSRLFVRNIGDPVTSSIADLKRMILASLMPEETLHQVMTQQPGDSSFLDWASDPYSANLVCVQSITRLLKNITARFVLIHSPNPMLKGLFHDDSKEEDERLAAFLMDRHIIVPRAAHEILDHSVTGARESIAGMLDTTKGLIRASMRKGGLTSRVITRLSNYDYEQFRAGMVLLTGRKRNVLIDKESCSVQLARALRSHMWARLARGRPIYGLEVPDVLESMRGHLIRRHETCVICECGSVNYGWFFVPSGCQLDDIDKETSSLRVPYIGSTTDERTDMKLAFVRAPSRSLRSAVRIATVYSWAYGDDDSSWNEAWLLARQRANVSLEELRVITPISTSTNLAHRLRDRSTQVKYSGTSLVRVARYTTISNDNLSFVISDKKVDTNFIYQQGMLLGLGVLETLFRLEKDTGSSNTVLHLHVETDCCVIPMIDHPRIPSSRKLELRAELCTNPLIYDNAPLIDRDATRLYTQSHRRHLVEFVTWSTPQLYHILAKSTALSMIDLVTKFEKDHMNEISALIGDDDINSFITEFLLIEPRLFTIYLGQCAAINWAFDVHYHRPSGKYQMGELLSSFLSRMSKGVFKVLVNALSHPKIYKKFWHCGIIEPIHGPSLDAQNLHTTVCNMVYTCYMTYLDLLLNEELEEFTFLLCESDEDVVPDRFDNIQAKHLCVLADLYCQPGTCPPIRGLRPVEKCAVLTDHIKAEARLSPAGSSWNINPIIVDHYSCSLTYLRRGSIKQIRLRVDPGFIFDALAEVNVSQPKVGSN

The variants in one assay derive from B1. Briefly: co-immunoprecipitation (IP anti-HA of P, immunoblot of L anti-FLAG, densitometry); lysates of transiently transfected cells, lysed 24 hours after transfection; IP at 4°C; parent: 100; read off a plot. In general terms: A western blot detects proteins with antibodies after separation by electrophoresis.
As for chain 1 R404A, chain 1 L406A, the percent of parent was ~14 % of wild type P.
In the case of chain 1 L377A, chain 1 G378A, chain 1 K379A, chain 1 D380A, the percent of parent is ~78 % of wild type P.
On the same count and under the same terms, next, chain 1 K440A, chain 1 P441A, chain 1 I442A, chain 1 G443A: ~75 % of wild type P.
Same read-out and setting: next, chain 1 P396A, chain 1 I397A, chain 1 I398A, chain 1 G399A: ~22 % of wild type P; chain 1 S447A, chain 1 S448A, chain 1 V450A: ~92 % of wild type P; chain 1 E408A, chain 1 V409A, chain 1 L410A: ~30 % of wild type P.
Still for that read-out and setting: next, chain 1 G431A, chain 1 Q432A, chain 1 L433A, chain 1 L434A: ~85 % of wild type P.
Take chain 1 D383A, chain 1 P384A, chain 1 T385A: the percent of parent is ~55 % of wild type P.
Take chain 1 D401A, chain 1 S402A, chain 1 G403A, chain 1 R404A: the percent of parent was ~19 % of wild type P.

The variants in another assay derive from B1. The assay is described as above. This is another data set of the same source.
As for chain 1 S462R, the percent of parent was ~75 % of wild type P.
On to chain 1 F497D, for which the percent of parent is ~120 % of wild type P.
Same read-out and setting: next, chain 1 R465E: ~62 % of wild type P; chain 1 D493K: ~150 % of wild type P; chain 1 T483R: ~85 % of wild type P.
On the same count and under the same terms, next, chain 1 D486R: ~130 % of wild type P; chain 1 K469E: ~75 % of wild type P; chain 1 R479E: ~82 % of wild type P.

The next assay covers variants of B1. The description is as above. The source holds these as a separate data set.
For the variant chain 1 S361A, the percent of parent was ~85 % of wild type P.
On the same count and under the same terms, next, chain 1 L363A: ~38 % of wild type P.
The same measure, in the same setting: next, chain 1 E364A: ~44 % of wild type P; chain 1 S361A, chain 1 T362A: ~95 % of wild type P.
Same read-out and setting: next, chain 1 L363A, chain 1 E364A: ~20 % of wild type P.

The variants in another assay derive from B1. The description is as above. The source holds these as a separate data set.
chain 1 S470R: the percent of parent is ~65 % of wild type P.
The same measure, in the same setting: next, chain 1 S466R: ~20 % of wild type P; chain 1 H498E: ~18 % of wild type P.
Still for that read-out and setting: next, chain 1 V463R: ~5 % of wild type P; chain 1 M502R: ~120 % of wild type P.
Still for that read-out and setting: next, chain 1 A491R: ~120 % of wild type P.
With chain 1 A495R, the percent of parent is ~78 % of wild type P.

Another assay covers variants of B1. Described as above. This is another data set of the same source.
Consider chain 1 G365A, chain 1 H366A, chain 1 L367A, chain 1 S368A, for which the percent of parent is ~12 % of wild type P.
The same measure, in the same setting: next, chain 1 S361A, chain 1 T362A, chain 1 L363A, chain 1 E364A: ~3 % of wild type P; chain 1 S369A, chain 1 I370A, chain 1 M371A, chain 1 I372A: ~14 % of wild type P.
As to chain 1 I374A, chain 1 P375A, chain 1 G376A, chain 1 L377A, the percent of parent was ~9 % of wild type P.
